# Laboratory results from the supplement of paper PMC6755084.
# Tested on: F1*sub RNA substrate (template-directed ligation)
# Assay: fraction ligated after 30 min (ligated reads / total reads); higher = more ligase activity; sequences stand for … in GAGACCGCAACTGAAAAGTTGT…AGTTCTGCACGTAGAAGCAAAAGGC
# Conditions: 42 °C
# How it was run: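 Oligo-pool templates underwent PCR amplification, T7 transcription and gel purification to yield ribozyme variants. Gel-separated ligated and unligated bands were converted to complementary DNA with barcoded primers and sequenced on a MiSeq, keeping core bases of quality ≥20. The ratio of ligated reads to total reads gave the fraction ligated for every variant.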
row,Sequence,fraction ligated
1,TATCACGTCGTAAGAACTTTGGATGGGTTGA [3d1301],0.825
2,TATCACGTCGTAAGACACTTGGATGGGTTGA [3d1304],0.81
3,TATCACGTCGTAAGACACTTTGATGGGTTGA [3d1305],0.777
4,TATCACGTCGTAAGACACTTTGGAGGGTTGA [3d1307],0.104
5,TATCACGTCGTAAGACACTTTGGATGGGTTA [3d1309],0.734
6,TATCACGTCGTAAGACACTTTGGATGGGTTG [3d1310],0.782
7,TATCACGTCGTAAGACACTTTGGATGGGTTGA [2d128],0.791
8,TATCACGTCGTAAGACACTTTGGATGGTTGA [3d1308],0.361
9,TATCACGTCGTAAGACACTTTGGTGGGTTGA [3d1306],0.721
10,TATCACGTCGTAAGACATTTGGATGGGTTGA [3d1303],0.807
11,TATCACGTCGTAAGACCTTTGGATGGGTTGA [3d1302],0.786
12,TATCACGTCGTAAGCACTTTGGATGGGTTGA [3d1300],0.768
13,TATCACGTCGTAGACACTTTGGATGGGTTGA [3d1298],0.801
14,TATCACGTCTAAGACACTTTGGATGGGTTGA [3d1296],0.772
15,TATCACGTGTAAGACACTTTGGATGGGTTGA [3d1295],0.829
16,TATCACTCGTAAGACACTTTGGATGGGTTGA [3d1293],0.783
17,TATCACTGCGAAGACACTTTGGATGGGTTGA [3d1329],0.831
18,TATCACTGCGTAAACACTTTGGATGGGTTGA [3d1331],0.838
19,TATCACTGCGTAAGAACTTTGGATGGGTTGA [3d1333],0.842
20,TATCACTGCGTAAGACACTTGGATGGGTTGA [3d1336],0.793
21,TATCACTGCGTAAGACACTTTGATGGGTTGA [3d1337],0.763
22,TATCACTGCGTAAGACACTTTGGAGGGTTGA [3d1339],0.0829
23,TATCACTGCGTAAGACACTTTGGATGGGTTA [3d1341],0.803

row,Sequence,fraction ligated
1,TATCACTGCGTAAGACACTTTGGATGGGTTG [3d1342],0.834
2,TATCACTGCGTAAGACACTTTGGATGGGTTGA [2d130],0.851
3,TATCACTGCGTAAGACACTTTGGATGGTTGA [3d1340],0.15
4,TATCACTGCGTAAGACACTTTGGTGGGTTGA [3d1338],0.119
5,TATCACTGCGTAAGACATTTGGATGGGTTGA [3d1335],0.854
6,TATCACTGCGTAAGACCTTTGGATGGGTTGA [3d1334],0.857
7,TATCACTGCGTAAGCACTTTGGATGGGTTGA [3d1332],0.826
8,TATCACTGCGTAAGCCTTTGGATGGGTTGA [s2],0.814
9,TATCACTGCGTAGACACTTTGGATGGGTTGA [3d1330],0.862
10,TATCACTGCTAAGACACTTTGGATGGGTTGA [3d1328],0.81
11,TATCACTGGTAAGACACTTTGGATGGGTTGA [3d1327],0.828
12,TATCACTGTCAAGACACTTTGGATGGGTTGA [3d1358],0.817
13,TATCACTGTCGAAACACTTTGGATGGGTTGA [3d1373],0.83
14,TATCACTGTCGAAGAACTTTGGATGGGTTGA [3d1375],0.846
15,TATCACTGTCGAAGACACTTGGATGGGTTGA [3d1378],0.812
16,TATCACTGTCGAAGACACTTTGATGGGTTGA [3d1379],0.75
17,TATCACTGTCGAAGACACTTTGGAGGGTTGA [3d1381],0.104
18,TATCACTGTCGAAGACACTTTGGATGGGTTA [3d1383],0.75
19,TATCACTGTCGAAGACACTTTGGATGGGTTG [3d1384],0.829
20,TATCACTGTCGAAGACACTTTGGATGGGTTGA [2d133],0.835
21,TATCACTGTCGAAGACACTTTGGATGGTTGA [3d1382],0.336
22,TATCACTGTCGAAGACACTTTGGTGGGTTGA [3d1380],0.369
23,TATCACTGTCGAAGACATTTGGATGGGTTGA [3d1377],0.841

row,Sequence,fraction ligated
1,TATCACTGTCGAAGACCTTTGGATGGGTTGA [3d1376],0.798
2,TATCACTGTCGAAGCACTTTGGATGGGTTGA [3d1374],0.826
3,TATCACTGTCGAGACACTTTGGATGGGTTGA [3d1372],0.826
4,TATCACTGTCGTAAAACTTTGGATGGGTTGA [3d1398],0.842
5,TATCACTGTCGTAAACACTTGGATGGGTTGA [3d1401],0.794
6,TATCACTGTCGTAAACACTTTGATGGGTTGA [3d1402],0.669
7,TATCACTGTCGTAAACACTTTGGAGGGTTGA [3d1404],0.0511
8,TATCACTGTCGTAAACACTTTGGATGGGTTA [3d1406],0.761
9,TATCACTGTCGTAAACACTTTGGATGGGTTG [3d1407],0.83
10,TATCACTGTCGTAAACACTTTGGATGGTTGA [3d1405],0.166
11,TATCACTGTCGTAAACACTTTGGTGGGTTGA [3d1403],0.086
12,TATCACTGTCGTAAACATTTGGATGGGTTGA [3d1400],0.822
13,TATCACTGTCGTAAACCTTTGGATGGGTTGA [3d1399],0.806
14,TATCACTGTCGTAACACTTTGGATGGGTTGA [3d1386],0.826
15,TATCACTGTCGTAAGAACTTGGATGGGTTGA [3d1419],0.847
16,TATCACTGTCGTAAGAACTTTGATGGGTTGA [3d1420],0.652
17,TATCACTGTCGTAAGAACTTTGGAGGGTTGA [3d1422],0.0317
18,TATCACTGTCGTAAGAACTTTGGATGGGTTA [3d1424],0.851
19,TATCACTGTCGTAAGAACTTTGGATGGGTTG [3d1425],0.87
20,TATCACTGTCGTAAGAACTTTGGATGGTTGA [3d1423],0.26
21,TATCACTGTCGTAAGAACTTTGGTGGGTTGA [3d1421],0.079
22,TATCACTGTCGTAAGAATTTGGATGGGTTGA [3d1418],0.804
23,TATCACTGTCGTAAGACACTGGATGGGTTGA [3d1440],0.824

row,Sequence,fraction ligated
1,TATCACTGTCGTAAGACACTTGATGGGTTGA [3d1441],0.77
2,TATCACTGTCGTAAGACACTTGGAGGGTTGA [3d1443],0.0736
3,TATCACTGTCGTAAGACACTTGGATGGGTTA [3d1445],0.775
4,TATCACTGTCGTAAGACACTTGGATGGGTTG [3d1446],0.807
5,TATCACTGTCGTAAGACACTTGGATGGTTGA [3d1444],0.382
6,TATCACTGTCGTAAGACACTTGGTGGGTTGA [3d1442],0.692
7,TATCACTGTCGTAAGACACTTTATGGGTTGA [3d1447],0.0197
8,TATCACTGTCGTAAGACACTTTGAGGGTTGA [3d1449],0.0155
9,TATCACTGTCGTAAGACACTTTGATGGGTTA [3d1451],0.351
10,TATCACTGTCGTAAGACACTTTGATGGGTTG [3d1452],0.754
11,TATCACTGTCGTAAGACACTTTGATGGTTGA [3d1450],0.0354
12,TATCACTGTCGTAAGACACTTTGGAGGGTTA [3d1458],0.0132
13,TATCACTGTCGTAAGACACTTTGGAGGGTTG [3d1459],0.0454
14,TATCACTGTCGTAAGACACTTTGGAGGTTGA [3d1457],0.0147
15,TATCACTGTCGTAAGACACTTTGGATGGGTT [3d1462],0.365
16,TATCACTGTCGTAAGACACTTTGGATGGGTTA [2d145],0.773
17,TATCACTGTCGTAAGACACTTTGGATGGGTTG [2d146],0.798
18,TATCACTGTCGTAAGACACTTTGGATGGGTTGA [1d7],0.806
19,TATCACTGTCGTAAGACACTTTGGATGGTTA [3d1460],0.272
20,TATCACTGTCGTAAGACACTTTGGATGGTTG [3d1461],0.33
21,TATCACTGTCGTAAGACACTTTGGATGGTTGA [2d144],0.513
22,TATCACTGTCGTAAGACACTTTGGGGGTTGA [3d1453],0.0319
23,TATCACTGTCGTAAGACACTTTGGTGGGTTA [3d1455],0.0411

row,Sequence,fraction ligated
1,TATCACTGTCGTAAGACACTTTGGTGGGTTG [3d1456],0.343
2,TATCACTGTCGTAAGACACTTTGGTGGTTGA [3d1454],0.0276
3,TATCACTGTCGTAAGACACTTTGTGGGTTGA [3d1448],0.0145
4,TATCACTGTCGTAAGACATTGGATGGGTTGA [3d1433],0.818
5,TATCACTGTCGTAAGACATTTGATGGGTTGA [3d1434],0.79
6,TATCACTGTCGTAAGACATTTGGAGGGTTGA [3d1436],0.431
7,TATCACTGTCGTAAGACATTTGGATGGGTTA [3d1438],0.792
8,TATCACTGTCGTAAGACATTTGGATGGGTTG [3d1439],0.82
9,TATCACTGTCGTAAGACATTTGGATGGTTGA [3d1437],0.606
10,TATCACTGTCGTAAGACATTTGGTGGGTTGA [3d1435],0.752
11,TATCACTGTCGTAAGACCTTGGATGGGTTGA [3d1426],0.809
12,TATCACTGTCGTAAGACCTTTGATGGGTTGA [3d1427],0.773
13,TATCACTGTCGTAAGACCTTTGGAGGGTTGA [3d1429],0.133
14,TATCACTGTCGTAAGACCTTTGGATGGGTTA [3d1431],0.808
15,TATCACTGTCGTAAGACCTTTGGATGGGTTG [3d1432],0.835
16,TATCACTGTCGTAAGACCTTTGGATGGTTGA [3d1430],0.628
17,TATCACTGTCGTAAGACCTTTGGTGGGTTGA [3d1428],0.441
18,TATCACTGTCGTAAGACTTTGGATGGGTTGA [3d1408],0.856
19,TATCACTGTCGTAAGCACTTGGATGGGTTGA [3d1411],0.745
